The target of this data set is SARS-CoV-2 nucleocapsid (N) protein, full-length;mAb nCoV396 (human IgG1) (SARS-CoV-2;Homo sapiens) (UniProt P0DTC9). The data set can be described thus: EMSA.

pKd: −log10 of the molar value.

As to AAGUUCGUUU [TRS RNA], the pKd is 4.82.
